Assay results taken from patent US20160340422A1 (published 2016).

Key:
Mouse IL-17A = molecular target: T1, Mouse IL-17A (mouse, UniProt Q62386 26-158); assay: ELISA
T1 chain: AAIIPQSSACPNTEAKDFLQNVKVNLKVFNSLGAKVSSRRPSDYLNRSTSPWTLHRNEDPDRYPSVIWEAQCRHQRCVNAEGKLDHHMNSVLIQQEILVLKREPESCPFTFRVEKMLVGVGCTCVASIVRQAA

Human IL-17A = Human IL-17A (human, UniProt Q16552 24-155); assay: ELISA
Sequence of Human IL-17A (Q16552 24-155): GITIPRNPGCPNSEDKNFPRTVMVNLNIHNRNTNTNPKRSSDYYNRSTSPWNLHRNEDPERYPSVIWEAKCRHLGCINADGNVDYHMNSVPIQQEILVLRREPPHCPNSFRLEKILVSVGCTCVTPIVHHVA

- EC50 (Mouse IL-17A): 0.088 nM
- EC50 (Human IL-17A): 0.088 nM
B1: Control antibody A (antibody, V domains shown)
VH: QVQLKESGPGLVQPSQTLSLTCTVSGFSLTNYYVHWVRQPPGKGLEWMGGVWNDGDTSYNSVLRSRLSITRDTSKSQVLLKMSSLQTEDTATYYCAREGREGFVGYYVMDAWGPGASVTVSS
VL: DIQMTQSPSFLSASVGERVTLSCKASQNINKYLDWFQQKLGEAPKLLIYNADNLHTGIPSRFSGSGSFSDFILTISSLQPEDDATYFCLQRESWPYTFGAGTKLELKR
